Data as given in the supplement of paper PMC10724198.
± gives the standard deviation of the averaged measurements.

Assays:
Saccharomyces cerevisiae [1] = experiment: protein stability index of tFT-peptide fusion (C-terminal peptide) (PSI (0-1 scale)); higher = more stable (slower turnover); conditions: genetic background: wild type; temperature: 30 C
Saccharomyces cerevisiae [2] = experiment: as above
Method: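 MPS profiling in S. cerevisiae of the tFT-X12 degron library: putative degron peptides plus stable controls, 12 aa, fused to the C-terminus of a sfGFP-mCherry timer. Cells are FACS-sorted into 8 mCherry/sfGFP bins and deep-sequenced. PSI runs from 0 (unstable) to 1 (stable). Backgrounds are wild type, das1Δ and doa10Δ at 30 °C, and wild type, das1Δ, cdc34-1 and cdc53-1 at 37 °C; 2-3 technical replicates each.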

[3] = genetic background: cdc34-1, temperature: 37 C
[4] = genetic background: cdc53-1, temperature: 37 C
[5] = genetic background: das1 deletion, temperature: 30 C
[6] = genetic background: das1 deletion, temperature: 37 C
[7] = genetic background: doa10 deletion, temperature: 30 C
[8] = genetic background: wild type, temperature: 30 C
[9] = genetic background: wild type, temperature: 37 C
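Note: PSI is a weighted mean of sequencing reads over stability bins, variants kept only with over 10 reads, mCherry proximal and sfGFP distal, peptide attached via GGGS linker.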

Sequence	protein stability index (Saccharomyces cerevisiae [1])	protein stability index (Saccharomyces cerevisiae [2]; [3])	protein stability index (Saccharomyces cerevisiae [2]; [4])	protein stability index (Saccharomyces cerevisiae [2]; [5])	protein stability index (Saccharomyces cerevisiae [2]; [6])	protein stability index (Saccharomyces cerevisiae [2]; [7])	protein stability index (Saccharomyces cerevisiae [2]; [8])	protein stability index (Saccharomyces cerevisiae [2]; [9])
LFAIFLVVLLFR	0.219 ± 0.054	0.106 ± 0.016	0.089 ± 0.0072	0.195 ± 0.03	0.273 ± 0.0081	0.297 ± 0.0092	0.201 ± 0.028	0.2089 ± 0.0002
LFFPLPGILSFF	0.523 ± 0.046	0.76 ± 0.027	0.771 ± 0.022	0.631 ± 0.022	0.7783 ± 0.0029	0.484 ± 0.0073	0.498 ± 0.02	0.676 ± 0.033
LFFWVLTVMFVW	0.302 ± 0.046	0.162 ± 0.025	0.23 ± 0.0048	0.224 ± 0.013	0.3199 ± 0.00034	0.222 ± 0.011	0.195 ± 0.015	0.283 ± 0.015
LFGRVLSGILSV	0.523 ± 0.06	0.687 ± 0.04	0.721 ± 0.015	0.567 ± 0.019	0.702 ± 0.028	0.474 ± 0.014	0.524 ± 0.037	0.68 ± 0.011
LFLLSHYALCFY	0.3967 ± 0.0035	0.523 ± 0.0055	0.53 ± 0.018	0.441 ± 0.018	0.593 ± 0.028	0.333 ± 0.0045	0.336 ± 0.017	0.527 ± 0.012
LFLSFLLFVLAF	0.388 ± 0.042	0.434 ± 0.023	0.444 ± 0.015	0.319 ± 0.029	0.471 ± 0.036	0.302 ± 0.0039	0.312 ± 0.045	0.425 ± 0.0086
LFLSIFFFHLLF	0.37 ± 0.033	0.314 ± 0.023	0.251 ± 0.049	0.338 ± 0.041	0.4359 ± 0.0036	0.439 ± 0.045	0.313 ± 0.01	0.385 ± 0.041
LFPVFFPLFAPA	0.322 ± 0.03	0.285 ± 0.029	0.336 ± 0.035	0.266 ± 0.034	0.404 ± 0.018	0.206 ± 0.013	0.271 ± 0.018	0.36504 ± 0.00017
LFSCTQLLPITA	0.245 ± 0.032	0.0614 ± 0.017	0.077 ± 0.012	0.173 ± 0.02	0.198 ± 0.0068	0.141 ± 0.013	0.176 ± 0.018	0.166 ± 0.0061
LFSIFMSYRVYI	0.411 ± 0.02	0.35 ± 0.037	0.435 ± 0.021	0.383 ± 0.07	0.486 ± 0.017	0.302 ± 0.03	0.312 ± 0.0037	0.44 ± 0.031
LFSTRRWISVCA	0.0789 ± 0.016	0.0208 ± 0.0016	0.0362 ± 0.013	0.134 ± 0.035	0.127 ± 0.011	0.0486 ± 0.012	0.054 ± 0.0027	0.0577 ± 0.015
LFSVLVFIYFVM	0.127 ± 0.022	0.102 ± 0.032	0.113 ± 0.017	0.169 ± 0.034	0.288 ± 0.07	0.17 ± 0.016	0.133 ± 0.0054	0.217 ± 0.025
LFTSGNSLVLVH	0.365 ± 0.0042	0.21126 ± 0.00018	0.257 ± 0.02	0.236 ± 0.037	0.3909 ± 0.00093	0.202 ± 0.0086	0.25 ± 0.034	0.362 ± 0.0076
LFYVSFLFMLLF	0.378 ± 0.01	0.359 ± 0.084	0.34751 ± 0.00024	0.363 ± 0.036	0.459 ± 0.025	0.396 ± 0.0059	0.325 ± 0.013	0.447 ± 0.029
LGALFGRFWWYF	0.42 ± 0.027	0.664 ± 0.024	0.7416 ± 0.0074	0.654 ± 0.01	0.795 ± 0.013	0.278 ± 0.012	0.291 ± 0.023	0.541 ± 0.016
LGCLVWGGVWGV	0.479 ± 0.019	0.706 ± 0.04	0.7595 ± 0.00079	0.625 ± 0.0078	0.737 ± 0.025	0.628 ± 0.021	0.638 ± 0.016	0.727 ± 0.041
LGFSHTRAIFFV	0.307 ± 0.011	0.651 ± 0.039	0.7312 ± 0.0055	0.605 ± 0.012	0.724 ± 0.0022	0.186 ± 0.01	0.213 ± 0.0094	0.396 ± 0.0071
LGGCVSYINLLA	0.308 ± 0.026	0.592 ± 0.032	0.682 ± 0.018	0.594 ± 0.022	0.6997 ± 0.0013	0.197 ± 0.024	0.236 ± 0.015	0.3917 ± 0.0035
LGRFHLACLLFL	0.43 ± 0.048	0.588 ± 0.013	0.61417 ± 0.00036	0.486 ± 0.028	0.6113 ± 0.004	0.41 ± 0.0065	0.412 ± 0.035	0.543 ± 0.014
LGVLVVAFCGGC	0.409 ± 0.031	0.488 ± 0.041	0.554 ± 0.0076	0.354 ± 0.034	0.541 ± 0.0069	0.325 ± 0.017	0.347 ± 0.023	0.5327 ± 0.00083

Sequence	protein stability index (Saccharomyces cerevisiae [1])	protein stability index (Saccharomyces cerevisiae [2]; [3])	protein stability index (Saccharomyces cerevisiae [2]; [4])	protein stability index (Saccharomyces cerevisiae [2]; [5])	protein stability index (Saccharomyces cerevisiae [2]; [6])	protein stability index (Saccharomyces cerevisiae [2]; [7])	protein stability index (Saccharomyces cerevisiae [2]; [8])	protein stability index (Saccharomyces cerevisiae [2]; [9])
LIICRSFLCKVR	0.3 ± 0.01	0.236 ± 0.026	0.2557 ± 0.0016	0.193 ± 0.029	0.369 ± 0.0059	0.16 ± 0.0049	0.174 ± 0.023	0.317 ± 0.0052
LILIVVVAGSVG	0.269 ± 0.038	0.201 ± 0.019	0.392 ± 0.088	0.226 ± 0.027	0.437 ± 0.0066	0.206 ± 0.014	0.23 ± 0.013	0.385 ± 0.015
LIMIRLLYLRLI	0.102 ± 0.035	0.166 ± 0.15	0.153 ± 0.042	0.269 ± 0.029	0.365 ± 0.022	0.105 ± 0.017	0.0628 ± 0.033	0.102 ± 0.0037
LINHSWLLLSVL	0.325 ± 0.035	0.368 ± 0.017	0.432 ± 0.036	0.363 ± 0.038	0.521 ± 0.026	0.14246 ± 3.7e-05	0.133 ± 0.018	0.1583 ± 0.00095
LLCSLGFRFSLF	0.377 ± 0.034	0.651 ± 0.033	0.728 ± 0.011	0.651 ± 0.019	0.725 ± 0.019	0.289 ± 0.0056	0.328 ± 0.044	0.546 ± 0.038
LLFGCLIRIGCS	0.35 ± 0.051	0.268 ± 0.017	0.307 ± 0.012	0.244 ± 0.048	0.403 ± 0.021	0.225 ± 0.0046	0.253 ± 0.03	0.3638 ± 0.00063
LLILSVRPFVFV	0.43 ± 0.0067	0.479 ± 0.0094	0.52 ± 0.0072	0.397 ± 0.032	0.544 ± 0.0068	0.3727 ± 0.0033	0.367 ± 0.025	0.515 ± 0.022
LLLALLFWPCPI	0.473 ± 0.02	0.5178 ± 0.0016	0.526 ± 0.0074	0.402 ± 0.028	0.559 ± 0.037	0.396 ± 0.024	0.39 ± 0.038	0.518 ± 0.021
LLLIGISFLIFY	0.352 ± 0.05	0.184 ± 0.048	0.287 ± 0.0035	0.208 ± 0.029	0.385 ± 0.008	0.199 ± 0.025	0.21 ± 0.025	0.335 ± 0.052
LLLTAIRVLRMH	0.169 ± 0.056	0.561 ± 0.016	0.7045 ± 0.0038	0.587 ± 0.021	0.7177 ± 0.0014	0.118 ± 0.0018	0.149 ± 0.037	0.217 ± 0.033
LLLVCYSTFIVA	0.313 ± 0.026	0.287 ± 0.057	0.359 ± 0.045	0.254 ± 0.04	0.3813 ± 0.0031	0.251 ± 0.011	0.28 ± 0.014	0.364 ± 0.0041
LLLVPLLAFSAS	0.521 ± 0.035	0.56 ± 0.054	0.63 ± 0.029	0.473 ± 0.034	0.6084 ± 0.0031	0.462 ± 0.027	0.46 ± 0.019	0.598 ± 0.015
LLMFWLSIWFWG	0.32 ± 0.035	0.22 ± 0.0092	0.292 ± 0.0066	0.245 ± 0.047	0.374 ± 0.008	0.268 ± 0.023	0.233 ± 0.037	0.3551 ± 0.0028
LLPYSLSLALRA	0.412 ± 0.0096	0.395 ± 0.0049	0.391 ± 0.015	0.314 ± 0.048	0.468 ± 0.0073	0.2604 ± 0.0023	0.28 ± 0.027	0.429 ± 0.015
LLSFSQLGYFVL	0.212 ± 0.04	0.634 ± 0.056	0.716 ± 0.012	0.633 ± 0.034	0.738 ± 0.023	0.13 ± 0.0051	0.152 ± 0.039	0.335 ± 0.027
LLSGHFRLLLAF	0.136 ± 0.029	0.0523 ± 0.014	0.149 ± 0.007	0.178 ± 0.02	0.23 ± 0.013	0.0793 ± 0.0067	0.0945 ± 0.014	0.108 ± 0.02
LLVCLGYFLFLG	0.403 ± 0.0091	0.37 ± 0.025	0.372 ± 0.031	0.313 ± 0.024	0.484 ± 0.055	0.338 ± 0.0061	0.288 ± 0.051	0.453 ± 0.022
LNVEEGGGLENV	0.536 ± 0.1	0.698 ± 0.043	0.727 ± 0.023	0.631 ± 0.026	0.719 ± 0.024	0.661 ± 0.044	0.637 ± 0.044	0.699 ± 0.018
LPHPLPFCFSLY	0.515 ± 0.062	0.711 ± 0.024	0.7672 ± 0.0058	0.672 ± 0.0085	0.7781 ± 0.0021	0.4271 ± 0.0037	0.451 ± 0.025	0.6683 ± 0.0063
